These results are taken from paper PMC8991989.

The test concerns the target Epidermal growth factor receptor (EGFR), labelled for MST (UniProt P00533). Kind of test: MST.

The Kd is a measure of binding affinity in units of concentration. High values mean lower affinity, low ones higher affinity. The substance “FIP-nha, a fungal immunomodulatory protein from Nectria haematococca (natural protein)” displayed a Kd of 15.5 µM.
